# B1: CPEB3 Ribozyme (parent)
# chain: UAACAGGGGGCCACAGCAGAAGCGUUCACGUCGCAGCCCCUGUCAGAUUCUGGUGAAUCUGCGAAUUCUGCUGUAUAUCUC
# Variants of: B1
# Experiment: self-cleavage, relative activity (ratio to wild type); higher = more cleavage; in vitro, sequencing
# Summary of the method: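 Barcoded CPEB3 ribozyme mutants, produced by rounds of error-prone PCR, self-cleaved while being transcribed with T7 RNA polymerase for 5 hours at 37°C and during a subsequent 15 min DNase I step before EDTA was added. Sequencing of template-switched cDNA on Illumina gave cleaved and total reads, and DNA sequencing assigned barcodes to variants. Each variant's relative activity is its cleaved/total read fraction divided by the unmutated ribozyme's fraction, averaged across three batches. A variant needed a minimum of 5 reads.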
row,Variant,self-cleavage
1,UAACAGGGGGCCACAGCAGACGCGUUCACGUCGCAGCCCCUGUCAGAUUCUGGUGGAUCUGCGAAUUCUGCUGUAUAUCUC,0.3
2,UAACAGGGGGCCACAGCAGACGCGUUCACGUCGCAGCCCCUGUCAGAUUCUGGUGUAUCUGCGAAUUCUGCUGUAUAUCUC,0.16
3,UAACAGGGGGCCACAGCAGACGCGUUCACGUCGCAGCCCCUGUCAGAUUCUGGUGAAACUGCGAAUUCUGCUGUAUAUCUC,0.16
4,UAACAGGGGGCCACAGCAGACGCGUUCACGUCGCAGCCCCUGACAGAUUCUGGUGAAUCUGCGAAUUCUGCUGUAUAUCUC,0.35
5,UAACAGGGGGCCACAGCAGACGCGUUCACGUCGCAGCCCCUGCCAGAUUCUGGUGAAUCUGCGAAUUCUGCUGUAUAUCUC,0.19
6,UAACAGGGGGCCACAGCAGACGCGUUCACGUCGCAGCCCCUGUCAGAUGCUGGUGAAUCUGCGAAUUCUGCUGUAUAUCUC,0.11
7,UAACAGGGGGCCACAGCAGACGCGUUCACGUCGCAGCCCCUGUCAGAUUCUGGUGAAUCUGCGAAUUCUGCUAUAUAUCUC,0.35
8,UAACAGGGGGCCACAGCAGACGCGUUCACGUCGCAGCCCCUGUCAGAUUCUGGUGAAUCUGCGAAUUCUGCUGUAUAUCUG,0.3
9,UAACAGGGGGCCACAGCAGACGCGUUCACGUCGCAGCCCCUGUCAGAUUCCGGUGAAUCUGCGAAUUCUGCUGUAUAUCUC,0.19
10,UAACAGGGGGCCACAGCAGACGCGUUCACGUCGCAGCCCCUGUCAGAUUCAGGUGAAUCUGCGAAUUCUGCUGUAUAUCUC,0.15
11,UAACAGGGGGCCACAGCAGACGCGUUCACGUCGCAGCCCCUGUCAAAUUCUGGUGAAUCUGCGAAUUCUGCUGUAUAUCUC,0.37
12,UAACAGGGGGCCACAGCAGACGCGUUCACGUCGCAGCCCCUGUCAGAUUCUGGUCAAUCUGCGAAUUCUGCUGUAUAUCUC,0.21
13,UAACAGGGGGCCACAGCAGACGCGUUCACGUCGCAGCCCCUGUCAGAUUCUGGUGAAUCUGCGAGUUCUGCUGUAUAUCUC,0.34
14,UAACAGGGGGCCACAGCAGACGCGUACACGUCGCAGCCCCUGUCAGAUUCUGGUGAAUCUGCGAAUUCUGCUGUAUAUCUC,0.23
15,UAACAGGGGGCCACAGCAGACGGGUUCACGUCGCAGCCCCUGUCAGAUUCUGGUGAAUCUGCGAAUUCUGCUGUAUAUCUC,0.16
16,UAACAGGGGGCCACAGCAGACGCGUUCACGUCGCAGCUCCUGUCAGAUUCUGGUGAAUCUGCGAAUUCUGCUGUAUAUCUC,0.16
17,UAACAGGGGGCCACAGCAGACGCGUUCACGUCGCAGCACCUGUCAGAUUCUGGUGAAUCUGCGAAUUCUGCUGUAUAUCUC,0

row,Variant,self-cleavage
1,UAACAGGGGGCCACAGCAGACGCGUUCACGUCGCAGCCCCUGUCAGAUUCUGGUGAAUCUGCGUAUUCUGCUGUAUAUCUC,0.07
2,UAACAGGGGGCCACAGCAGACGCGUUCACGUCGCAGCCCCUGUCAGAUUCUGGUGAAUCUGCGCAUUCUGCUGUAUAUCUC,0.17
3,UAACAGGGGGCCACAGCAGACGCGAUCACGUCGCAGCCCCUGUCAGAUUCUGGUGAAUCUGCGAAUUCUGCUGUAUAUCUC,0.28
4,UAACAGGGGGCCACAGCAGACGCGCUCACGUCGCAGCCCCUGUCAGAUUCUGGUGAAUCUGCGAAUUCUGCUGUAUAUCUC,0.28
5,UAACAGGGGGCCACAGCAGACGCGUUCACGUCGCAGCCCCUGUCUGAUUCUGGUGAAUCUGCGAAUUCUGCUGUAUAUCUC,0.13
6,UAACAGGGGGCCACAGCAGACGCGUUCACGUCGCAGCCCCUGUCAGACUCUGGUGAAUCUGCGAAUUCUGCUGUAUAUCUC,0.19
7,UAACAGGGGGCCACAGCAGACGCGUUCACGUCGCAGCCCCUGUCAGAUUCUGGUGAAUCGGCGAAUUCUGCUGUAUAUCUC,0.15
8,UAACAGGGGGCCACAGCAGACGCGUUCACGUCGCAGCCCCUGUCAGAUUCUGGUGAAUCAGCGAAUUCUGCUGUAUAUCUC,0.36
9,UAACAGGGGGCCACAGCAGACGCGUUCACGUCGCAGCCCCUGUCAGAUUCUGGUGAAUCCGCGAAUUCUGCUGUAUAUCUC,0.07
10,UAACAGGGGGCCACAGCAGACGCGUUCACGUCGCAGCCCCUGUCAGAUUCUGGCGAAUCUGCGAAUUCUGCUGUAUAUCUC,0.23
11,UAACAGGGGGCCACAGCAGACGCGUUCACGUCGCAGCCCCUGUCAGAUUCUGGAGAAUCUGCGAAUUCUGCUGUAUAUCUC,0.17
12,UAACAGGGGGCCACAGCAGACGCGUUCACGUCGCAGCCCCCGUCAGAUUCUGGUGAAUCUGCGAAUUCUGCUGUAUAUCUC,0.13
13,UAACAGGGGGCCACAGCAGACGCGUUCACGUCGCAGCCCCUGUCAGGUUCUGGUGAAUCUGCGAAUUCUGCUGUAUAUCUC,0.3
14,UAACAGGGGGCCACAGCAGACGCGUUCACGUCGCAGCCCCUGUCAGAUUCUGGUGAAUCUGCGAAUUCUGGUGUAUAUCUC,0.11
15,UAACAGGGGGCCACAGCAGACGCGUUCACGUCGCAGCCCCUGUCAGAUUCUGGUGAAUCUGCGAAUUCUGAUGUAUAUCUC,0.09
16,UAACAGGGGGCCACAGCAGACGCGUUCACGUCGCAGCCCCUGUCAGAUUCUGGUGAAUCUGCGAAUCCUGCUGUAUAUCUC,0.1
17,UAACAGGGGGCCACAGCAGACGCGUUCACGUCGCAGCCCCUGUCAGAUUCUGUUGAAUCUGCGAAUUCUGCUGUAUAUCUC,0.15

# — the RNAGym collection of RNA variant scans (doi:10.1093/nar/gkz1192)
